First the molecules themselves.
B1: ORA59-W3 (dsDNA)
DNA 1: CCATCTAACAACAAATTTGACCAAAAGTTTCCTTATT
DNA 2: AATAAGGAAACTTTTGGTCAAATTTGTTGTTAGATGG
B2: ORA59-W2 (dsDNA)
DNA 1: TAATCGCATCGCATGTTTGACCCATTTAGCCGCATAT
DNA 2: ATATGCGGCTAAATGGGTCAAACATGCGATGCGATTA
B3: ORA59-W6 (dsDNA)
DNA 1: GAAACCGACGTTAGGTTTGACTATTTTATTTACAGTC
DNA 2: GACTGTAAATAAAATAGTCAAACCTAACGTCGGTTTC
B4: ORA59-W1-M (dsDNA)
DNA 1: CGATTTAGCCGCATGTTTTTCCTATTTTGCCCACATA
DNA 2: TATGTGGGCAAAATAGGAAAAACATGCGGCTAAATCG

The target of the series is GST-WRKY45 (UniProt Q9S763 1-147). As to the kind of experiment: EMSA; Beyotime chemiluminescent EMSA kit binding buffer (composition, salt and pH not stated), room temperature, 20 min, 6% native PAGE; unlabeled competitor 5x and 50x or 50-100x (Methods). The following applies: protein: recombinant; tags: GST; label: biotin (end); blunt. (A gel shift assay detects complexes by their altered migration in electrophoresis.)
Chain of GST-WRKY45 (Q9S763 whole entry): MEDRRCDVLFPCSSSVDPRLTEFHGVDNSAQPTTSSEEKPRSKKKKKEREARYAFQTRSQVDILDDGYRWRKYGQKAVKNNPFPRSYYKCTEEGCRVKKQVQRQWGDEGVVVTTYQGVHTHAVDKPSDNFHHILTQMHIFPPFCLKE
On to B1, for which the binding result is reported as “binds”.
Consider B2, for which the binding result is “binds”.
Then B3, with “binds”; and B4, with “no binding”.

(Values after article PMC12757795, “WRKY45 is a negative regulator of Botrytis cinerea resistance through the JA/ET signaling pathway in Arabidopsis”.)
